Measurements from the supplement of paper PMC11246515.
± gives the standard deviation of the averaged measurements.

Test: total protein half-life in vivo (active degradation + dilution); higher = more stable protein
[1] = E. coli NCM3722 delta-clpP delta-lon delta-hslV, growth: N-lim chemostat, doubling time 6 h
[2] = E. coli NCM3722 delta-clpP, growth: N-lim chemostat, doubling time 6 h
[3] = E. coli NCM3722 delta-lon, growth: N-lim chemostat, doubling time 6 h
[4] = E. coli NCM3722 delta-smpB, growth: N-lim chemostat, doubling time 6 h
[5] = wild type E. coli NCM3722, growth: C-lim chemostat, doubling time 3 h
[6] = wild type E. coli NCM3722, growth: C-lim chemostat, doubling time 6 h
[7] = wild type E. coli NCM3722, growth: C-lim chemostat, doubling time 12 h
[8] = wild type E. coli NCM3722, growth: N-lim chemostat, doubling time 6 h
[9] = wild type E. coli NCM3722, growth: N-lim chemostat, doubling time 12 h
[10] = wild type E. coli NCM3722, growth: P-lim chemostat, doubling time 6 h
[11] = wild type E. coli NCM3722, growth: P-lim chemostat, doubling time 12 h
[12] = E. coli NCM3722 delta-hslV, growth: N-lim chemostat, doubling time 6 h

Row | Sequence | total protein half-life in vivo [1] | total protein half-life in vivo [2] | total protein half-life in vivo [3] | total protein half-life in vivo [4] | total protein half-life in vivo [5] | total protein half-life in vivo [6] | total protein half-life in vivo [7] | total protein half-life in vivo [8] | total protein half-life in vivo [9] | total protein half-life in vivo [10] | total protein half-life in vivo [11] | total protein half-life in vivo [12]
1 | MMLSKKNSETLENFSEKLEVEGRSLWQDARRRFMHNRAAVASLIVLVLIALFVILAPMLSQFAYDDTDWAMMSSAPDMESGHYFGTDSSGRDLLVRVAIGGRISLMVGVAAALVAVVVGTLYGSLSGYLGGKVDSVMMRLLEILNSFPFMFFVILLVTFFGQNILLIFVAIGMVSWLDMARIVRGQTLSLKRKEFIEAAQVGGVSTSGIVIRHIVPNVLGVVVVYASLLVPSMILFESFLSFLGLGTQEPLSSWGALLSDGANSMEVSPWLLLFPAGFLVVTLFCFNFIGDGLRDALDPKDR [P0AFH6] | 5.16 ± 0.26 h | 5.51 ± 0.1 h | 4.46 ± 0.22 h | 5.01 ± 0.59 h | 3.23 ± 0.41 h | 5.484 ± 0.036 h | 10.8 ± 2.5 h | 5.17 ± 0.17 h | 8.49 ± 0.1 h | 5.37 ± 0.46 h | 9.83 ± 1.2 h | 
2 | MMNFNNVFRWHLPFLFLVLLTFRAAAADTLLILGDSLSAGYRMSASAAWPALLNDKWQSKTSVVNASISGDTSQQGLARLPALLKQHQPRWVLVELGGNDGLRGFQPQQTEQTLRQILQDVKAANAEPLLMQIRLPANYGRRYNEAFSAIYPKLAKEFDVPLLPFFMEEVYLKPQWMQDDGIHPNRDAQPFIADWMAKQLQPLVNHDS [P0ADA1] | 4.1 ± 0.072 h | 4.87 ± 0.67 h | 6.67 ± 0.4 h | 4.99 ± 0.46 h | 3.25 ± 0.11 h | 6.228 ± 0.058 h | 11.1 ± 5.7 h | 5.25 ± 0.28 h | 11 ± 3.7 h | 5.23 ± 0.37 h | 11.4 ± 0.78 h | 6.432 ± 0.063 h
3 | MMNKSNFEFLKGVNDFTYAIACAAENNYPDDPNTTLIKMRMFGEATAKHLGLLLNIPPCENQHDLLRELGKIAFVDDNILSVFHKLRRIGNQAVHEYHNDLNDAQMCLRLGFRLAVWYYRLVTKDYDFPVPVFVLPERGENLYHQEVLTLKQQLEQQVREKAQTQAEVEAQQQKLVALNGYIAILEGKQQETEAQTQARLAALEAQLAEKNAELAKQTEQERKAYHKEITDQAIKRTLNLSEEESRFLIDAQLRKAGWQADSKTLRFSKGARPEPGVNKAIAEWPTGKDETGNQGFADYVLFVGLKPIAVVEAKRNNIDVPARLNESYRYSKCFDNGFLRETLLEHYSPDEVHEAVPEYETSWQDTSGKQRFKIPFCYSTNGREYRATMKTKSGIWYRDVRDTRNMSKALPEWHRPEELLEMLGSEPQKQNQWFADNPGMSELGLRYYQEDAVRAVEKAIVKGQQEILLAMATGTGKTRTAIAMMFRLIQSQRFKRILFLVDRRSLGEQALGAFEDTRINGDTFNSIFDIKGLTDKFPEDSTKIHVATVQSLVKRTLQSDEPMPVARYDCIVVDEAHRGYILDKEQTEGELQFRSQLDYVSAYRRILDHFDAVKIALTATPALHTVQIFGEPVYRYTYRTAVIDGFLIDQDPPIQIITRNAQEGVYLSKGEQVERISPQGEVINDTLEDDQDFEVADFNRGLVIPAFNRAVCNELTNYLDPTGSQKTLVFCVTNAHADMVVEELRAAFKKKYPQLEHDAIIKITGDADKDARKVQTMITRFNKERLPNIVVTVDLLTTGVDIPSICNIVFLRKVRSRILYEQMKGRATRLCPEVNKTSFKIFDCVDIYSTLESVDTMRPVVVRPKVELQTLVNEITDSETYKITEADGRSFAEHSHEQLVAKLQRIIGLATFNRDRSETIDKQVRRLDELCQDAAGVNFNGFASRLREKGPHWSAEVFNKLPGFIARLEKLKTDINNLNDAPIFLDIDDEVVSVKSLYGDYDTPQDFLEAFDSLVQRSPNAQPALQAVINRPRDLTRKGLVELQEWFDRQHFEESSLRKAWKETRNEDIAARLIGHIRRAAVGDALKPFEERVDHALTRIKGENDWSSEQLSWLDRLAQALKEKVVLDDDVFKTGNFHRRGGKAMLQRTFDDNLDTLLGKFSDYIWDELA | 5.34 ± 0.76 h | 4.93 ± 0.26 h | 3.899 ± 0.015 h | 3.07 ± 0.13 h | 2.49 ± 0.13 h | 4.7 ± 0.1 h | 7.2 ± 0.38 h | 3.52 ± 0.2 h | 5.31 ± 0.98 h | 3.94 ± 0.11 h | 6.58 ± 0.092 h | 3.45 ± 0.22 h
4 | MMNPVLWLQMTNMISYQGLVRTFLNKNDLKAFIAFPSSLYPDDPNWIPPLFIERNEHLSAKNPGTDHIIWQAWVAKKAGQIVGRITAQIDTLHRERYGKDTGHFGMIDAIDDPQVFAALFGAAEAWLKSQGASKISGPFSLNINQESGLLIEGFDTPPCAMMPHGKPWYAAHIEQLGYHKGIDLLAWWMQRTDLTFSPALKKLMDQVRKKVTIRCINRQRFAEEMQILREIFNSGWQHNWGFVPFTEHEFATMGDQLKYLVPDDMIYIAEIDSAPCAFIVGLPNINEAIADLNGSLFPFGWAKLLWRLKVSGVRTARVPLMGVRDEYQFSRIGPVIALLLIEALRDPFARRKIDALEMSWILETNTGMNNMLERIGAEPYKRYRLYEKQI |  |  |  | 3.38 h |  |  |  |  |  |  |  | 2.23 h
